Measurements published in PMC4747207 (2015).

Target: GST-Skp1 (Homo sapiens (Human), UniProt P63208)
Assay: GST pull-down, Western blot

GST-Skp1, sequence (P63208 whole entry): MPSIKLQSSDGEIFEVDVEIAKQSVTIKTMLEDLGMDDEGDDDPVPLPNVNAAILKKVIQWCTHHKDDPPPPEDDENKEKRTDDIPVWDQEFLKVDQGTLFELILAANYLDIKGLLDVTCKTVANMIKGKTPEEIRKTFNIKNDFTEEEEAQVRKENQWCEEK

B1: Recombinant human MAGE-C2 protein (protein)
chain: MPPVPGVPFRNVDNDSPTSVELEDWVDAQHPTDEEEEEASSASSTLYLVFSPSSFSTSSSLILGGPEEEEVPSGVIPNLTESIPSSPPQGPPQGPSQSPLSSCCSSFSWSSFSEESSSQKGEDTGTCQGLPDSESSFTYTLDEKVAELVEFLLLKYEAEEPVTEAEMLMIVIKYKDYFPVILKRAREFMELLFGLALIEVGPDHFCVFANTVGLTDEGSDDEGMPENSLLIIILSVIFIKGNCASEEVIWEVLNAVGVYAGREHFVYGEPRELLTKVWVQGHYLEYREVPHSSPPYYEFLWGPRAHSESIKKKVLEFLAKLNNTVPSSFPSWYKDALKDVEERVQATIDTADDATVMASESLSVMSSNVSFSE
binding result: no binding
